The text below walks through data of patent EP4613276A2 (Actym Therapeutics, Inc., dated 2025).

The target of assay [1] is CD3 on Jurkat-Lucia™ NFAT cells (Homo sapiens (Human)) (UniProt P07766). As to the kind of experiment: flow cytometry on Jurkat-Lucia NFAT cells, concentrated supernatant, BiTE detected with anti-FLAG-APC (anti-FLAG-APC only: 1519). A general note: In flow cytometry, cells or beads pass a laser one at a time.
Assay [2] has the same target. The assay can be described thus: flow cytometry on Jurkat-Lucia NFAT cells, BiTE detected with anti-FLAG-APC (anti-FLAG-APC only: 1519).
Assay [3] deals with CD19 on Raji cells (UniProt P15391). The assay can be described thus: flow cytometry on Raji cells, BiTE detected with anti-FLAG-APC (anti-FLAG-APC only: 1439).
Chain of CD19 on Raji cells (P15391 20-556 limits assumed): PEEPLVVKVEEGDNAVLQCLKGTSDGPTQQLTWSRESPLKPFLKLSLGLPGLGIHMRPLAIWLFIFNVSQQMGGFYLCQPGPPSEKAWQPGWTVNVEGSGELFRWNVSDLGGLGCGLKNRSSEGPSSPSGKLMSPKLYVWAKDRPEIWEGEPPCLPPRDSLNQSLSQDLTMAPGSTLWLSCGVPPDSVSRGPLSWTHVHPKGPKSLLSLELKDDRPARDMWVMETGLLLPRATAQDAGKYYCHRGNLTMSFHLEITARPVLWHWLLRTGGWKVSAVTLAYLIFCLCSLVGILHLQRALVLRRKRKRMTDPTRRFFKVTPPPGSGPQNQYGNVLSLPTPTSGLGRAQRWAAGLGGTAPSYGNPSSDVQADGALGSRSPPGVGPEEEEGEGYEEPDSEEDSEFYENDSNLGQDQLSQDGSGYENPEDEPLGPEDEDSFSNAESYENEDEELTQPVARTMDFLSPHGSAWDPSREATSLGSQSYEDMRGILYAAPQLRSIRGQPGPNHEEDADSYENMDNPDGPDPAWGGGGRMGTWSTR
For assay [4] the target is unchanged. As to the kind of experiment: flow cytometry on Raji cells, concentrated supernatant, BiTE detected with anti-FLAG-APC (anti-FLAG-APC only: 1439).
Assay [5] has as its target CD3 on Jurkat-Lucia™ NFAT cells (Homo sapiens (Human)) (UniProt P07766). The assay can be described thus: cell-based or functional assay.
Assay [6] concerns the target mouse TGF-β1 (R&D Systems) (mouse) (UniProt P04202). The assay can be described thus: direct ELISA with mouse TGF-β1 on concentrated HEK293T supernatant (media control 0.041 ± 0.002). In general terms: ELISA stands for enzyme-linked immunosorbent assay.
For assay [7] the target is unchanged. The assay can be described thus: direct ELISA with mouse TGF-β1 on HEK293T supernatant (media control 0.041 ± 0.002).
In assay [8] the target is recombinant murine CTLA-4-human IgG1 Fc chimera (R&D Systems) (mouse; human) (UniProt P09793). The assay can be described thus: competitive ELISA: HEK293T supernatant mixed with 10 ng/ml murine CTLA-4-human IgG1 Fc, on coated mouse CD80 (competitor); anti-human IgG1-HRP detection.
For assay [9] the target is unchanged. The assay can be described thus: competitive ELISA: HEK293T supernatant mixed with 10 ng/ml murine CTLA-4-human IgG1 Fc, on coated mouse CD86 (competitor); anti-human IgG1-HRP detection.
Assay [10] deals with T1, recombinant murine CTLA-4-human IgG1 Fc chimera (R&D Systems) (mouse; human, UniProt P09793 36-162; P01857 100-330 = IgG part, limits assumed).
T1 construct: Bought reagent; also called mouse CTLA-4-Fc
The assay can be described thus: direct ELISA of transfected HEK293T supernatant on mouse CTLA-4-Fc; the grade is printed as the payload's expression level.

Chain of CD3 on Jurkat-Lucia™ NFAT cells (Homo sapiens (Human)) (P07766 23-207 limits assumed, form in doubt, chain 1 of 3): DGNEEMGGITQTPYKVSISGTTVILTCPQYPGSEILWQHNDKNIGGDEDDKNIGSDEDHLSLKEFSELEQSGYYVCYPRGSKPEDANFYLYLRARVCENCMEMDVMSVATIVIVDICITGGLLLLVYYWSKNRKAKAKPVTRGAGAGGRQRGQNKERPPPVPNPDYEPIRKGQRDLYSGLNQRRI
Chain of CD3 on Jurkat-Lucia™ NFAT cells (Homo sapiens (Human)) (delta, as listed by the source limits assumed, form in doubt, chain 2 of 3): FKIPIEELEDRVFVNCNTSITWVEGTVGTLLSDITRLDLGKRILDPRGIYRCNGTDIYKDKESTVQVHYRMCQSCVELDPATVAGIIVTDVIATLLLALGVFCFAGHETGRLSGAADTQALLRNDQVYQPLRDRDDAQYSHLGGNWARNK
Chain of CD3 on Jurkat-Lucia™ NFAT cells (Homo sapiens (Human)) (gamma, as listed by the source limits assumed, form in doubt, chain 3 of 3): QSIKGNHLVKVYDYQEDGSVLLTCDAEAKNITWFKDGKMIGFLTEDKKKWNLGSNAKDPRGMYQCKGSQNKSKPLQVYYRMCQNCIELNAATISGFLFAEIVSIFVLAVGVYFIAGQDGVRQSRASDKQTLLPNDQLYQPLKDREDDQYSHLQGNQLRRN
Chain of mouse TGF-β1 (R&D Systems) (mouse) (P04202 279-390 limits assumed): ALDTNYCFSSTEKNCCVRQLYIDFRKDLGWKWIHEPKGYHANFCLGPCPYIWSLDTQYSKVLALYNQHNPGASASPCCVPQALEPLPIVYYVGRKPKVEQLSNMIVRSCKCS

On to “CD3xCD19 bispecific T-cell engager (BiTE®), containing a FLAG tag and a His tag (bispecific antibody)”, for which the Mean Fluorescence Intensity (MFI) of APC+ Cells in assay [1] came out at 14100 MFI. In addition, in [2], the Mean Fluorescence Intensity (MFI) of APC+ Cells came out at 4580 MFI. In the assay with CD19 on Raji cells [3], the Mean Fluorescence Intensity (MFI) of APC+ Cells came out at 7410 MFI. This molecule also returned a Mean Fluorescence Intensity (MFI) of APC+ Cells with CD19 on Raji cells [4] of 16000 MFI. In assay [5], this molecule registered a Luminescence (NFAT reporter), 1 Raji: 1 Jurkat, 6 hour time point, CD3xCD19 BiTE® of 2060 Luminescence; a Luminescence (NFAT reporter), 1 Raji: 1 Jurkat, 6 hour time point, concentrated CD3xCD19 BiTE® of 4340 Luminescence; a Luminescence (NFAT reporter), 1 Raji: 1 Jurkat, 24 hour time point, CD3xCD19 BiTE® of 6020 Luminescence; a Luminescence (NFAT reporter), 1 Raji: 1 Jurkat, 24 hour time point, concentrated CD3xCD19 BiTE® of 18600 Luminescence. In assay [5], this molecule showed a Luminescence (NFAT reporter), 2 Raji: 1 Jurkat, 6 hour time point, CD3xCD19 BiTE® of 3440 Luminescence; a Luminescence (NFAT reporter), 2 Raji: 1 Jurkat, 6 hour time point, concentrated CD3xCD19 BiTE® of 12100 Luminescence; a Luminescence (NFAT reporter), 2 Raji: 1 Jurkat, 24 hour time point, CD3xCD19 BiTE® of 11300 Luminescence; a Luminescence (NFAT reporter), 2 Raji: 1 Jurkat, 24 hour time point, concentrated CD3xCD19 BiTE® of 47200 Luminescence.

Turning to “Soluble mouse TGFβ receptor II-Fc (Fc fusion)”, the Absorbance at 450 nm (absorbance at 450 nm) in assay [6] stood at 1.52; in [7], 1.51.

For “anti-CTLA-4 scFv (ipilimumab scFv antibody fragment)”, the % CD80 Blockade Activity in assay [8] came to 7%. Further, the % CD86 Blockade Activity in [9] came out at 32.5%.

B1: anti-murine CTLA-4 scFv (derived from the 9D9 clone) (scFv)
scFv: DIVMTQTTLSLPVSLGDQASISCRSSQSIVHSNGNTYLEWYLQKPGQSPKLLIYKVSNRFSGVPDRFSGSGSGTDFTLKISRVEAEDLGVYYCFQGSHVPYTFGGGTKLEIKGGGGSGGGGSGGGGSEAKLQESGPVLVKPGASVKMSCKASGYTFTDYYMNWVKQSHGKSLEWIGVINPYNGDTSYNQKFKGKATLTVDKSSSTAYMELNSLTSEDSAVYYCARYYGSWFAYWGQGTLVTVSS
notes: Tested as HEK293T supernatant; also called anti-muCTLA-4 scFv
With B1, the binding result in [10] is “binds”.

B2: anti-murine CTLA-4 scFv-Fc (derived from the 9D9 clone, mouse IgG2a Fc) (Fc fusion)
chain: DIVMTQTTLSLPVSLGDQASISCRSSQSIVHSNGNTYLEWYLQKPGQSPKLLIYKVSNRFSGVPDRFSGSGSGTDFTLKISRVEAEDLGVYYCFQGSHVPYTFGGGTKLEIKGGGGSGGGGSGGGGSEAKLQESGPVLVKPGASVKMSCKASGYTFTDYYMNWVKQSHGKSLEWIGVINPYNGDTSYNQKFKGKATLTVDKSSSTAYMELNSLTSEDSAVYYCARYYGSWFAYWGQGTLVTVSSEPRGPTIKPCPPCKCPAPNLLGGPSVFIFPPKIKDVLMISLSPIVTCVVVDVSEDDPDVQISWFVNNVEVHTAQTQTHREDYNSTLRVVSALPIQHQDWMSGKEFKCKVNNKDLPAPIERTISKPKGSVRAPQVYVLPPPEEEMTKKQVTLTCMVTDFMPEDIYVEWTNNGKTELNYKNTEPVLDSDGSYFMYSKLRVEKKNWVERNSYSCSVVHEGLHNHHTTKSFSRTPGK
notes: Tested as HEK293T supernatant; also called anti-muCTLA-4 scFv-Fc
With B2, in assay [10], the binding result is “binds”.
